Assay results reported in patent US20260285998 (published 2026).

T1: human BCMA (cell surface) (human)
T1 chain: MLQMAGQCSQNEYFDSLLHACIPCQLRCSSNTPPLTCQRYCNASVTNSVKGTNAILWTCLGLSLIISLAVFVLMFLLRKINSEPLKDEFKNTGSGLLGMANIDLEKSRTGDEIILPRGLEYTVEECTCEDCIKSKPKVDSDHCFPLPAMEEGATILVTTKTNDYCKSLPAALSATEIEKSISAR

T2: human BCMA-Fc (human)
T2 chain: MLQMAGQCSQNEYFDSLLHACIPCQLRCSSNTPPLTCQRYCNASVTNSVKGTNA

T3: human BCMA R27P (human)
T3 chain: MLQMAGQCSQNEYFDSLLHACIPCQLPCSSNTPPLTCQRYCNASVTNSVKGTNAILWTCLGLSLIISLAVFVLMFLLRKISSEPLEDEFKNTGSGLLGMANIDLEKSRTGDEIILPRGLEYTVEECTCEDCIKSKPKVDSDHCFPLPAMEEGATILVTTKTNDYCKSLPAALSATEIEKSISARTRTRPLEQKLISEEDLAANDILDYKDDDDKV

T4: human BCMA S30del (human)
T4 chain: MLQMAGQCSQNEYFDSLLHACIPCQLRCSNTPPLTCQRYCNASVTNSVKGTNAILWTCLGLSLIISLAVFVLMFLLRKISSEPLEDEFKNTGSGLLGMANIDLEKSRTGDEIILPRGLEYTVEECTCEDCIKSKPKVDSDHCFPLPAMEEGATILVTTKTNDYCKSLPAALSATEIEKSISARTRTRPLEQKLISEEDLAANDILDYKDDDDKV


What was measured:
[1] = molecular target: T1, human BCMA (cell surface); experiment: FACS
[2] = molecular target: T2, human BCMA-Fc; experiment: SPR, 25C
[3] = molecular target: cynomolgus BCMA-Fc (cynomolgus); experiment: SPR, 25C
Sequence of cynomolgus BCMA-Fc (cynomolgus) (chain, as listed by the source): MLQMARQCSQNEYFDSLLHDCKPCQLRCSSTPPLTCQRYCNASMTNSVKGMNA

[4] = molecular target: T3, human BCMA R27P; experiment: FACS
[5] = molecular target: T4, human BCMA S30del; experiment: FACS

Row | EC50 [1] [nM] | Kd [2] [nM] | Kd [3] [nM] | Binder | further results
1 | 23.7 | – | – | P1AG7397 BCMA arm (antibody, V domains shown) VH: EVQLLESGGGLVQPGGSLRLSCAASGFTFSNAWMDWVRQAPGKGLEWVSQITAKSNNYATYYADSVKGRFTISRDNSKNTLYLQMNSLRAEDTAVYYCTDDGYHWGQGTLVTVSS VL: DIQMTQSPSSLSASVGDRVTITCRASEDIRNGLAWYQQKPGKAPKLLIYNANSLHTGVPSRFSGSGSGTDFTLTISSLQPEDFATYYCEDTSKYPYTFGQGTKLEIK | –
2 | 10.8 | – | – | P1AG7422 BCMA arm (antibody, V domains shown) VH: EVQLVESGGGLVKPGGSLRLSCAASGFTFSNAWMDWVRQAPGKGLEWIAQITAKSNNYATYYAAPVKGRFTISRDDSKNTLYLQMNSLKTEDTAVYYCTDDGYHWGQGTLVTVSS VL: AIQMTQSPSSLSASVGDRVTITCRASEDIRNGLAWYQQKPGKAPKLLIYNANSLHTGVPSRFSGSGSGTDFTLTISSLQPEDFATYYCEDTSKYPYTFGQGTKLEIK | –
3 | – | 3.4 | 1.7 | P1AG5067 (54_VH1a/VL1a_L1_pGL) (antibody, V domains shown) VH: EVQLVESGGGLVKPGGSLRLSCAASGFTFSNAWMDWVRQAPGKGLEWVGQITAKSNNYATYYAAPVKGRFTISRDDSKNTLYLQMNSLKTEDTAVYYCTDDGYHWGQGTLVTVSS VL: AIQMTQSPSSLSASVGDRVTITCRASEDIRNDLGWYQQKPGKAPKLLIYNANSLHTGVPSRFSGSGSGTDFTLTISSLQPEDFATYYCEDTSKYPYTFGQGTKLEIK | –
4 | – | 2.7 | 3.8 | P1AG5028 (54_VH2a/VL1a) (antibody, V domains shown) VH: EVQLLESGGGLVQPGGSLRLSCAASGFTFSNAWMDWVRQAPGKGLEWVSQITAKSNNYATYYADSVKGRFTISRDNSKNTLYLQMNSLRAEDTAVYYCTDDGYHWGQGTLVTVSS VL: AIQMTQSPSSLSASVGDRVTITCRASEDIRNGLAWYQQKPGKAPKLLIYNANSLHTGVPSRFSGSGSGTDFTLTISSLQPEDFATYYCEDTSKYPYTFGQGTKLEIK | –
5 | – | 1.3 | 2.2 | P1AG5030 (54_VH1b/VL2a) (antibody, V domains shown) VH: EVQLVESGGGLVKPGGSLRLSCAASGFTFSNAWMDWVRQAPGKGLEWIAQITAKSNNYATYYAAPVKGRFTISRDDSKNTLYLQMNSLKTEDTAVYYCTDDGYHWGQGTLVTVSS VL: DIQMTQSPSSLSASVGDRVTITCRASEDIRNGLAWYQQKPGKAPKLLIYNANSLHTGVPSRFSGSGSGTDFTLTISSLQPEDFATYYCEDTSKYPYTFGQGTKLEIK | –
6 | – | 1.7 | 0.11 | P1AG5014 (54_VH1a_Y292D/VL1a_L1_pGL) (antibody, V domains shown) VH: EVQLVESGGGLVKPGGSLRLSCAASGFTFSNAWMDWVRQAPGKGLEWVGQITAKSNNYATDYAAPVKGRFTISRDDSKNTLYLQMNSLKTEDTAVYYCTDDGYHWGQGTLVTVSS VL: AIQMTQSPSSLSASVGDRVTITCRASEDIRNDLGWYQQKPGKAPKLLIYNANSLHTGVPSRFSGSGSGTDFTLTISSLQPEDFATYYCEDTSKYPYTFGQGTKLEIK | –
7 | 103 | – | – | P1AH1062 (5D5 LM4) BCMA arm (antibody) chain 1: not shown chain 2: EIVLTQSPGTLSLSPGERATLSCKASQDIDDAINWYQQKPGQAPRLLIYDASLRATGIPDRFSGSGSGTDFTLTISRLEPEDFAVYYCQQSLRTPITFGQGTKLEIKRTVAAPSVFIFPPSDEQLKSGTASVVCLLNNFYPREAKVQWKVDNALQSGNSQESVTEQDSKDSTYSLSSTLTLSKADYEKHKVYACEVTHQGLSSPVTKSFNRGEC | –
8 | 21.6 | – | – | P1AG7409 BCMA arm (antibody, V domains shown) VH: QVQLVQSGAEVKKPGASVKVSCKASGYTFTNYWMHWVRQAPGQGLEWMGIIHPNSGSTNYNEKFQGRVTMTRDTSTSTVYMELSSLRSEDTAVYYCARGIYDYPFAYWGQGTLVTVSS VL: DIQMTQSPSSLSASVGDRVTITCRASESVSIHGTHLMHWYQQKPGKAPKLLIYAASNLESGVPSRFSGSGSGTDFTLTISSLQPEDFATYYCQQSIEDPYTFGGGTKVEIK | –
9 | – | 2.6 | 14 | P1AG5043 (E04_VH1a/VL1d) (antibody, V domains shown) VH: QVQLVQSGAEVKKPGASVKVSCKASGYTFTNYWMHWVRQAPGQGLEWMGIIHPNSGSTNYNEKFQGRVTMTRDTSTSTVYMELSSLRSEDTAVYYCARGIYDYPFAYWGQGTLVTVSS VL: DIQMTQSPSSLSASVGDRVTITCRASESVSIHGTHLMHWYQQKPGKAPKLLIYAASNLQSGVPSRFSGSGSETDFTLTISSLQPEDFATYYCQQSIEDPYTFGGGTKVEIK | –
10 | – | 2.8 | 35 | P1AG5021 (E04_VH1b/VL1g) (antibody, V domains shown) VH: QVQLVQSGAEVKKPGASVKVSCKASGYTFTNYWMHWVRQAPGQGLEWMGIIHPNSGSTNYNEKFQGRVTMTVDKSTSTVYMELSSLRSEDTAVYYCARGIYDYPFAYWGQGTLVTVSS VL: DIQMTQSPSSLSASVGDRVTITCRASESVSIHGTHLMHWYQQKPGKAPKLLIYAASNLESGVPSRFSGSGSGTDFTLTISSLQPEDFATYFCQQSIEDPYTFGGGTKVEIK | –
11 | – | 3.2 | 32 | P1AG5034 (E04_VH1b/VL1e) (antibody, V domains shown) VH: QVQLVQSGAEVKKPGASVKVSCKASGYTFTNYWMHWVRQAPGQGLEWMGIIHPNSGSTNYNEKFQGRVTMTVDKSTSTVYMELSSLRSEDTAVYYCARGIYDYPFAYWGQGTLVTVSS VL: DIQMTQSPSSLSASVGDRVTITCRASESVSIHGTHLMHWYQQKPGKAPKLLIYAASSLQSGVPSRFSGSGSGTDFTLTISSLQPEDFATYYCQQSIEDPYTFGGGTKVEIK | –
12 | – | 2.3 | 30 | P1AG5059 (E04_VH1a/VL1g) (antibody, V domains shown) VH: QVQLVQSGAEVKKPGASVKVSCKASGYTFTNYWMHWVRQAPGQGLEWMGIIHPNSGSTNYNEKFQGRVTMTRDTSTSTVYMELSSLRSEDTAVYYCARGIYDYPFAYWGQGTLVTVSS VL: DIQMTQSPSSLSASVGDRVTITCRASESVSIHGTHLMHWYQQKPGKAPKLLIYAASNLESGVPSRFSGSGSGTDFTLTISSLQPEDFATYFCQQSIEDPYTFGGGTKVEIK | –
13 | – | 3.2 | 14 | P1AG5060 (E04_VH1b/VL1f) (antibody, V domains shown) VH: QVQLVQSGAEVKKPGASVKVSCKASGYTFTNYWMHWVRQAPGQGLEWMGIIHPNSGSTNYNEKFQGRVTMTVDKSTSTVYMELSSLRSEDTAVYYCARGIYDYPFAYWGQGTLVTVSS VL: DIQMTQSPSSLSASVGDRVTITCRASESVSIHGTHLMHWYQQKPGKAPKLLIYAASSLQSGVPSRFSGSGSETDFTLTISSLQPEDFATYYCQQSIEDPYTFGGGTKVEIK | –
14 | 41.5 | – | – | P1AG7400 BCMA arm (antibody, V domains shown) VH: QVQLVQSGAEVKKPGASVKVSCKASGYTFTNYWMHWVRQAPGQGLEWMGIIHPNSGSTNYNEKFQGRVTMTRDTSTSTVYMELSSLRSEDTAVYYCARGIYDYPFAYWGQGTLVTVSS VL: DIQMTQSPSSLSASVGDRVTITCRASESVSIHGTHLMHWYQQKPGKAPKLLIYAASSLQSGVPSRFSGSGSETDFTLTISSLQPEDFATYYCQQSIEDPYTFGGGTKVEIK | –
15 | – | 2.7 | 33 | P1AG5026 (E04_VH1b/VL1a) (antibody, V domains shown) VH: QVQLVQSGAEVKKPGASVKVSCKASGYTFTNYWMHWVRQAPGQGLEWMGIIHPNSGSTNYNEKFQGRVTMTVDKSTSTVYMELSSLRSEDTAVYYCARGIYDYPFAYWGQGTLVTVSS VL: DIQMTQSPSSLSASVGDRVTITCRASESVSIHGTHLMHWYQQKPGKAPKLLIYAASNLESGVPSRFSGSGSGTDFTLTISSLQPEDFATYYCQQSIEDPYTFGGGTKVEIK | –
16 | – | – | – | Teclistamab BCMA arm (antibody, V domains shown) VH: QLQLQESGPGLVKPSETLSLTCTVSGGSISSGSYFWGWIRQPPGKGLEWIGSIYYSGITYYNPSLKSRVTISVDTSKNQFSLKLSSVTAADTAVYYCARHDGAVAGLFDYWGQGTLVTVSS VL: SYVLTQPPSVSVAPGQTARITCGGNNIGSKSVHWYQQPPGQAPVVVVYDDSDRPSGIPERFSGSNSGNTATLTISRVEAGDEAVYYCQVWDSSSDHVVFGGGTKLTVLG | binding result [4]: no binding; binding result [5]: no binding
